Results taken from the supplement of paper PMC9732359.
± gives the uncertainty stated by the source.

Test: protein stability index of a GFP-peptide fusion (yeast GPS) (PSI 1-4); higher = more stable; sorted into four equal gates, so the index is relative within each strain
Method in brief: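 Tiled yeast protein peptides of 17 residues were each joined downstream of GFP, on plasmids that also express Cherry. The pooled library was maintained in yeast, and mid-log cultures in leucine-free medium were sorted into four equal gates on the GFP/Cherry ratio. Plasmids from every gate were amplified by PCR and sequenced on Illumina, with barcodes linking reads to strains. The protein stability index of a peptide is its gate-number-weighted read frequency summed over the gates.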

Sequence	protein stability index (doa10∆)	protein stability index (pdr5∆)	protein stability index (san1∆)	protein stability index (ubr1∆)
TLSKTTDSSALTYDRLE [PRE9]	3.16 ± 0.1	2.99 ± 0.13	2.89 ± 0.1	2.94 ± 0.058
ASGFGFGGSQPNSGTAT [YGR119C/NUP57]	3.19 ± 0.14	2.74 ± 0.086	2.4 ± 0.11	2.87 ± 0.094
DHQHILRKLKKMNNKPE [RPC53]	1.87 ± 0.053	1.7 ± 0.06	1.78 ± 0.1	1.51 ± 0.044
EEKVIERAAQKLRLDQL [ISW2]	2.81 ± 0.15	2.89 ± 0.14	2.87 ± 0.12	2.68 ± 0.11
HDFLFNTIIRDGSKMLK [RPN14]	2.05 ± 0.11	2.55 ± 0.095	3.03 ± 0.15	1.38 ± 0.068
VWFSHPRRYGKGSRQCR [RPS29A]	3.14 ± 0.16	3.24 ± 0.1	3.39 ± 0.067	3.31 ± 0.11
TDSWESFFVSVRKAITV [FAS1]	2.76 ± 0.27	2.4 ± 0.17		
TLSVSHGINLQNKKNLK [SSN2]	2.7 ± 0.062	2.62 ± 0.054	2.65 ± 0.077	2.78 ± 0.063
VREFQRRLAFLGIKVAE [BRR2]	2.06 ± 0.12	1.17 ± 0.14	1.04 ± 0.23	1.17 ± 0.087
GMTKSNIYNFSPSERIE [BRR2]	3.18 ± 0.082	3.38 ± 0.082	3.01 ± 0.19	2.96 ± 0.059
AVEFESVPLRKGDRALL [BRR2]	3.16 ± 0.29	3.45 ± 0.14	2.98 ± 0.075	2.87 ± 0.11
NVQTQYREAPVIYRGPE [RET1]	2.53 ± 0.095	2.97 ± 0.069	3.36 ± 0.042	3.14 ± 0.051
RVISEYYSRITLLRLNE [RPN5]	2.65 ± 0.076	1.67 ± 0.05	1.68 ± 0.084	1.87 ± 0.068
GNIKDLPENIILTSLMR [CSN9]	2.69 ± 0.1	2.93 ± 0.075	2.43 ± 0.14	3.03 ± 0.1
LLYYIPSLELSAEYLQM [YJR042W/NUP85]	1.12 ± 0.09	2.03 ± 0.18	1.45 ± 0.29	1.15 ± 0.12
DPNLSFESSSSLPFLLR [SSN2]	3.07 ± 0.16	3.19 ± 0.13	2.94 ± 0.1	2.82 ± 0.13
KTLNLFKQIKSADCELL [RPO31]	1.22 ± 0.21	1.06 ± 0.035	1.23 ± 0.29	1.05 ± 0.094
RTLRRKGDINPEVSMIR [RPB2]	3.11 ± 0.16	3.39 ± 0.13	2.79 ± 0.21	3.12 ± 0.076
SKSYTPRKLVLSSGENR [SMC4]	1.65 ± 0.03	1.82 ± 0.041	1.93 ± 0.056	1.7 ± 0.037
AAAEIADEPVKASLLLH [FAS2]	3.1 ± 0.18	3.01 ± 0.24	2.75 ± 0.19	1.17 ± 0.21
KFSLPFEQKGSQTTTND [YLR335W/NUP2]	3.25 ± 0.1	3.08 ± 0.1	3.11 ± 0.099	3.09 ± 0.094
NKQYHQANSNLTLLERK [NUT1]	2.34 ± 0.054	2.77 ± 0.055	2.59 ± 0.082	2.83 ± 0.066
GNSGVVRATFRNNLPAK [RPL33A]	2.88 ± 0.085	3.17 ± 0.12	3.19 ± 0.099	3.22 ± 0.067
DGHLRAPLKHGVGILYK [BRR2]	1.31 ± 0.055	2.33 ± 0.08	1.58 ± 0.2	1.26 ± 0.07
KYLKKRKIGISIDDHPY [RPC31]	1.41 ± 0.075	1.33 ± 0.081	1.77 ± 0.099	1.74 ± 0.051
LSDLSSPVQDWNLLRSL [YML103C/NUP188]	3.29 ± 0.14	3.07 ± 0.17	2.86 ± 0.1	2.65 ± 0.14
LITLFNKGELETQPGCN [RPO31]	2.71 ± 0.1	3.26 ± 0.083	2.98 ± 0.097	2.94 ± 0.11

Sequence	protein stability index (doa10∆)	protein stability index (pdr5∆)	protein stability index (san1∆)	protein stability index (ubr1∆)
SVPLMINAKNIAFASNY [RRP43]	1.57 ± 0.06	1.53 ± 0.051	1.27 ± 0.14	1.41 ± 0.052
ERSLRQKYNLLHVLPTL [SNM1]	1.22 ± 0.07	1.3 ± 0.13	2.03 ± 0.28	1.35 ± 0.17
QGDVEQIAAQSPVELSR [SMC1]	2.66 ± 0.087	2.92 ± 0.067	3.08 ± 0.063	2.83 ± 0.073
SQCRLHELREKERISVA [PRE2]	2.25 ± 0.11	2.59 ± 0.097	2.87 ± 0.097	1.67 ± 0.04
GCDENDSTVNKSITLKG [YDL088C/ASM4]	3.1 ± 0.091	3.27 ± 0.068	3.32 ± 0.06	3.11 ± 0.066
GTVGNSHKTTKEDTVSW [RPL11A]	3.07 ± 0.095	3.1 ± 0.095	3.22 ± 0.069	3.12 ± 0.18
KPDVTYADVGGLDMQKQ [RPT3]		3.69 ± 0.14	3.47 ± 0.24	3.35 ± 0.21
SPISDSRDELIRLAKTL [RPN10]	1.84 ± 0.095	1.77 ± 0.084	2.37 ± 0.16	2.24 ± 0.085
ERAELETDEYISYTSHI [RPN1]	3.14 ± 0.071	3.19 ± 0.076	3.01 ± 0.065	3.19 ± 0.05
GYGSNKKTKFLSPSGHK [RPL32]	2.4 ± 0.081	2.64 ± 0.09	2.62 ± 0.14	1.63 ± 0.092
LKSFTESTAGSASTSAT [ECM29]	2.82 ± 0.067	3.14 ± 0.061	3.06 ± 0.053	3.15 ± 0.04
EVRDATLNNIFRFDSIQ [GRR1]	3.18 ± 0.26		3.38 ± 0.2	3.24 ± 0.24
GEMERDCMIAHGAASFL [RPB2]	3.04 ± 0.13	3.08 ± 0.085	3.04 ± 0.073	2.76 ± 0.089
MVCETDVPSEDDPTQLV [RPO21]	3.03 ± 0.069	3.24 ± 0.12	3.37 ± 0.1	2.56 ± 0.11
VRNLQGIQEVVHNTNSF [NUT1]	2.98 ± 0.079	3.15 ± 0.068	2.94 ± 0.063	3.17 ± 0.063
MAKCLDNPDQGISDMCR [YCS4]	3.39 ± 0.19	3.55 ± 0.13	3.33 ± 0.13	3.2 ± 0.15
AIPNPEDVVAISSRTYG [RPS0B]	3.33 ± 0.11	3.07 ± 0.055	2.99 ± 0.079	3.09 ± 0.047
VEIIDQKKVLIDGPKAG [RPL14A]	2.8 ± 0.18	2.65 ± 0.09	2.91 ± 0.076	2.72 ± 0.065
TSMNGVHNTVAAGNASS [SNF5]	2.73 ± 0.043	2.74 ± 0.037	2.76 ± 0.05	2.76 ± 0.051
KAKNPLTHSTPKNFGIG [RPL8B]	3.31 ± 0.13	3.35 ± 0.12	3.14 ± 0.074	3.08 ± 0.05
DRNLTEFDSTDTSLCIN [RRI1]	2.98 ± 0.12	3 ± 0.12	2.59 ± 0.13	2.79 ± 0.067
KNLSLQTGTKPVLKKKA [COR1]	2.95 ± 0.07	3.05 ± 0.095	3.09 ± 0.06	2.79 ± 0.076
EALLVVLVSSVTEANII [RPS12]		1.15 ± 0.14		1.13 ± 0.11
MSVSDNDQALIKVLLRQ [RET1]	2.48 ± 0.052	2.62 ± 0.069	2.71 ± 0.067	2.6 ± 0.053
DNEEWMNDVINTEEVNR [LIN1]	3.2 ± 0.071	3.46 ± 0.079	3.23 ± 0.044	3.39 ± 0.085
ISENTFPNGFKNFENGP [RPC34]	2.96 ± 0.081	3.03 ± 0.069	2.91 ± 0.052	2.57 ± 0.034
FDDIFQVSEVDPGRYNK [RPB8]	3.06 ± 0.14	2.75 ± 0.12	2.57 ± 0.18	2.95 ± 0.097
